Laboratory results from patent publication US9925134B2, “Use of substances to protect FGF-2 or FGF-beta growth factor” (BASF Beauty Care Solutions France SAS, priority 2007, dated 2018).

Legend:
FGF-2 = FGF-2 (Homo sapiens, UniProt P09038); assay: Study of thermal degradation (stability) of FGF-2 at various temperatures with or without heparin, ELISA; format: physicochemical; settings: without heparin
Method: A 5 ng/ml solution of FGF-2 in a 10 mM PBS buffer with 0.1% BSA and 0.1% of methylparaben is prepared.
This solution is placed at various temperatures: 4° C., 20° C., 37° C., 50° C., and 80° C. either in the presence of heparin or not at 500 μg/ml.
Dosages of FGF-2 with a commercial ELISA kit (R&D system, France) are performed at different times (T=0, 3 hrs, 24 hrs and 48 hrs) so as to establish degradation kinetics for each temperature of investigation.
The results are expressed as a percentage of FGF-2 relative to time T=0. The experiments are conducted in triplicates (n=3). The obtained results are illustrated in FIGS. 1 and 2.

[1] = test system: normal human dermal fibroblasts; assay: Fibroblast proliferation by FGF-2 protected by heparin or extract 5c (PNPP); format: cell-based; settings: for Proliferation (expressed as percent relative to the non-treated well): 48 hrs, heparin 0.01% during 24 hrs at 37° C.
Method: A solution of FGF-2 is prepared extemporaneously (=non-degraded FGF-2); a solution of FGF-2 is placed for 24 hrse at 37° C. in the absence (=degraded FGF-2) and in the presence of heparin (=FGF-2+heparin at 37° C.) at 0.01%.
Each FGF-2 solution is diluted so as to be applied on the cells, the final FGF-2 concentrations being the following: 0.1, 0.25, 0.5, 0.75 and 1 ng/ml.
Normal human dermal fibroblasts were sown at low density in 6-well plates. They were then grown in a medium in the absence (control) or in the presence of FGF-2 at various concentrations.
After 48 hrs, the activity of intracellular acid phosphatases (PNPP) is dosed, so as to be able to evaluate the effect of FGF-2 solutions, either treated or not, on cell proliferation.
The results are expressed as a proliferation percentage relative to the control well i.e. to the non-treated well.
The same experiment was conducted by replacing heparin with extract 5c. The FGF-2 solution put into the presence of 0.5% of extract 5c is placed for 24 hrs at 37° C. The solution is then diluted so as to apply 0.5 ng/ml of FGF-2 in the wells containing the fibroblasts.
The 5c extract concentration finally applied on the cells is 0.0025%. It was checked beforehand that this 5c extract concentration was not capable of inducing stimulation of the proliferation of fibroblasts. This means that the observed stimulation of proliferation is actually due to the protection of FGF-2 by extract 5c (see Table 8).

cathepsin G = biological target: T1, cathepsin G (Homo sapiens, UniProt P08311); assay: Degradation kinetics of FGF-2 by cathepsin G; format: biochemical; settings: for FGF-2 concentration in the presence of cathepsin G / FGF-2 concentration Temperature control: 37° C.; for FGF-2 concentration in the presence of cathepsin G: cathepsin G 0.02 U per well; for FGF-2 concentration Temperature control: enzyme-free; for Degradation % in the presence of cathepsin G: relative to temperature control
T1 sequence (P08311 21-244): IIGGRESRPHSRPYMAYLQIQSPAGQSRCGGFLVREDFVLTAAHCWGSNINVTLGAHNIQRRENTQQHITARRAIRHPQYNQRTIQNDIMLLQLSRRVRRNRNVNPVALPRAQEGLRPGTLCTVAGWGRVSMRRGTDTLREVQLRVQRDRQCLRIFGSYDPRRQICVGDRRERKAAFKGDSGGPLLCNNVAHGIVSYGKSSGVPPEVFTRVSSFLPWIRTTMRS
Method: For this reason, a study of the degradation of FGF-2 by cathepsin G was conducted. Degradation kinetics was carried out in a 100 mM Hepes buffer, pH7 containing 0.1% BSA. Cathepsin G was added into the wells of the plate at a concentration of 0.02 U per well to a 2 ng/well FGF-2 solution. The plate was incubated at 37° C. and sampling was performed at 15, 30, 60, 90 and 120 minutes in order to dose the remaining FGF-2.
The control (100%) is made by extemporaneous dosage of FGF-2. At the same time, an enzyme-free control solution is placed at 37° C. in order to study thermal degradation at the different times, so as to get rid of this degradation due to temperature and to quantify the portion only due to enzymatic degradation.

[2] = 37° C.; neutral pH; cited from earlier work

Chain of FGF-2 (P09038 143-288): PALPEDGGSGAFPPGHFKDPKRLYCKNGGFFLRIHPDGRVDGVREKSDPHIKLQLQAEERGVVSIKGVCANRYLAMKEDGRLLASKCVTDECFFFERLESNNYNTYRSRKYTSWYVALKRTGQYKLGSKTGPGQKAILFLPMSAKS

Substance: FGF-2: Fibroblast Growth Factor; non-degraded = solution of FGF-2 prepared extemporaneously
- FGF-2 degraded (percentage relative to T=0) (FGF-2; 4° C., 48 hrs): 20%
- FGF-2 degradation (percentage relative to T=0) (FGF-2; 37° C., 3 hrs): 65%
- FGF-2 degraded (percentage relative to T=0) (FGF-2; 37° C., 24 hrs): 80%
- FGF-2 degradation (percentage relative to T=0) (FGF-2; 50° C., 3 hrs): 80%
- FGF-2 degradation (in words) (FGF-2; 80° C., 3 hrs): total degradation
- Proliferation (as a percentage) of fibroblasts relative to the non-treated control ([1]; FGF-2 0.5 ng/ml, 0.5% 5c extract during 24 hrs at 37° C. (0.0025% on the cells)): 148.5% ± 0.007
- Proliferation (expressed as percent relative to the non-treated well) ([1]; FGF-2 concentration 0.1 ng/ml): 116.7 ± 0.012%
- Proliferation (expressed as percent relative to the non-treated well) ([1]; FGF-2 concentration 0.25 ng/ml): 138.7 ± 0.005%
- Proliferation (expressed as percent relative to the non-treated well) ([1]; FGF-2 concentration 0.5 ng/ml): 148.5 ± 0.007%
- Proliferation (expressed as percent relative to the non-treated well) ([1]; FGF-2 concentration 0.75 ng/ml): 163.2 ± 0.005%
- Proliferation (expressed as percent relative to the non-treated well) ([1]; FGF-2 concentration 1 ng/ml): 160 ± 0.003%
- FGF-2 concentration in the presence of cathepsin G (cathepsin G; 0 minutes): 339.05 ± 7.43 pg/mL
- FGF-2 concentration Temperature control (cathepsin G; 0 minutes): 391.8 ± 3.64 pg/mL
- Degradation % in the presence of cathepsin G (cathepsin G; 0 minutes): 13.29%
- FGF-2 concentration in the presence of cathepsin G (cathepsin G; 15 minutes): 295.61 ± 8.49 pg/mL
- FGF-2 concentration Temperature control (cathepsin G; 15 minutes): 324.99 ± 1.7 pg/mL
- Degradation % in the presence of cathepsin G (cathepsin G; 15 minutes): 8.95%
- FGF-2 concentration in the presence of cathepsin G (cathepsin G; 30 minutes): 248.04 ± 1.97 pg/mL
- FGF-2 concentration Temperature control (cathepsin G; 30 minutes): 291.83 ± 2.4 pg/mL
- Degradation % in the presence of cathepsin G (cathepsin G; 30 minutes): 14.77%
- FGF-2 concentration in the presence of cathepsin G (cathepsin G; 60 minutes): 203.67 ± 1.13 pg/mL
- FGF-2 concentration Temperature control (cathepsin G; 60 minutes): 280.64 ± 3.23 pg/mL
- Degradation % in the presence of cathepsin G (cathepsin G; 60 minutes): 27.5%
- FGF-2 concentration in the presence of cathepsin G (cathepsin G; 90 minutes): 141.94 ± 5.14 pg/mL
- FGF-2 concentration Temperature control (cathepsin G; 90 minutes): 259.81 ± 4.9 pg/mL
- Degradation % in the presence of cathepsin G (cathepsin G; 90 minutes): 45.55%
- FGF-2 concentration in the presence of cathepsin G (cathepsin G; 120 minutes): 131.36 ± 2.49 pg/mL
- FGF-2 concentration Temperature control (cathepsin G; 120 minutes): 241.67 ± 1.97 pg/mL
- Degradation % in the presence of cathepsin G (cathepsin G; 120 minutes): 45.6%
- half-life time of FGF-2 in vitro [2]: about 24 hours
